The nature of the data set: soluble on expression in E. coli; label from the status in PepcDB or PDB records.
Turning to “KDCASDGTLSAVGSLETPEKKQSESSRGRKRKAENQNESSQGKSIGGRGHKISDYFEYQGGNGSSPVRGIPPAIRSPQNSHSHSTPSSSVRPNSPSPTALAFGDHPIVQPKQLSFKIIQTDLTMLKLAALESNKIQDLEKKEGRIDDLLRANCDLRRQIDEQQKLLEKYKERLNKCISMSKKLLIEKSTQEKLSSREKSMQDRLRLGHFTTVRHGASFTEQWTDGFAFQNLVKQQEWVNQQREDIERQRKLLAKRKPPTANNSQAPSTNSEPKQRKNKAVNGAENDPFVRPNLPQLLTLAEYHEQEEIFKLRLGHLKKEEAEIQAELERLERVRNLHIRELKRINNEDNSQFKDHPTLNERYLLLHLLGRGGFSEVYKAFDLYEQRYAAVKIHQLNKSWRDEKKENYHKHACREYRIHKELDHPRIVKLYDYFSLDTDTFCTVLEYCEGNDLDFYLKQHKLMSEKEARSIVMQIVNALRYLNEIKPPIIHYDLKPGNILLVDGTACGEIKITDFGLSKIMDDDSYGVDGMDLTSQGAGTYWYLPPECFVVGKEPPKISNKVDVWSVGVIFFQCLYGRKPFGHNQSQQDILQENTILKATEVQFPVKPVVSSEAKAFIRRCLAYRKEDRFDVHQLANDPYLLPHMRRSNSSGNLHMAGLTASPTPPSSSIITY”, the “soluble on expression in E. coli” value is on record as “soluble”.

Take “MKKGINRVVLVGTGAVGCSYAYCMINQAVAEEFVLVDVNEAKAEGEAMDLSHAVPFAPAPTRVWKGSYEDCKDADLVVITAGLPQKPGETRLDLVEKNAKIFKQIVRSIMDSGFDGIFLIATNPVDILTYVTWKESGLPKERVIGSGTTLDSARFRYMLGEYFNIGPHNIHAYIIGEHGDTELPVWSHVSVGIQKLQTLLEKDNTYNQEDLDKIFINVRDAAYHIIERKGATYYGIGMSLLRVTKAILNDENSVLTVSAYLEGQYGQKDVYIGVPAVLNRGGVREILEVELSEDEELKFDHSVQVLKETMAPVL”: the “soluble on expression in E. coli” value was “not soluble”.

With “MGLFNNFKFKYTRAQLEIFRFSFCLLAPVAVMYYIGTDTDKKLNVPGFWPDPATLNQIPKEPYEIKAELARMKKERLEKRLRLEKKIQEEFGLDLEEEKEKIKRDLALKKG”, the “soluble on expression in E. coli” value is given as “soluble”.

For “MDRMDKAAKINIINANVRNAQTGDYYYNPYKIVNKTFTDTDGKQVTLKIGITGVLPTQILVWDKANLEGKVTVDDPMEAVKTIVPQMKAAGADFILVAAHSGIGDNEYTKNEENEGYQIAGIEGVDAVATGHSHADFPNGDGTSFYAKYPGVDDVNGLINGKPVVMAGKFGDHLGIMDVKLTYTDGKWKVVNSKAKLEKIDTKSDIADKALIDMAAHDHDGTILTMFVRKLVRPL”, the “soluble on expression in E. coli” value is given as “not soluble”.

In the case of “MGSDKIHHHHHHMKLRRNMKWNDEGKRIVEMLKLRTPPVGVKFFQEKYEPERAFRPSKYGIKMAVCQAIAFARYIGRTVVLEAEDFGCPPAMLLYGVAEYEGSLKDILVGAQWLKDESCEVAEQKLPLGKYKSFVFGDMTKMAEEPEAVMIFGTPAQIGRLIQAATYFGGAVKANLTAKTASCAEALFPALRGEVAIAVPGAGDRVFAAIQETEMIFAMPYAWTGKILEGLENAGRGANISYPPSPFLMFTPRFPKHYRETAEKFKLV”, the “soluble on expression in E. coli” value is “not soluble”.

Regarding “MAANSLPTNVASPVQTTTPTTDKRSIGFIDRQLGTNPAELPPLPYGYDALEKAIDAETMKLHHDKHHAAYVNNLNNALKKHPELQNSSVEALLRDLNSVPEDIRTTVRNNGGGHLNHTIFWQIMSPDGGGQPTGDIAQEINQTFGSFEEFKKQFNQAGGDRFGSGWVWLVRNPQGQLQVVSTPNQDNPIMEGSYPIMGNDVWEHAYYLRYQNRRPEYLNNWWNVVNWSEINRRTQASRQSNSHHHHHH”, the “soluble on expression in E. coli” value is “soluble”.

On to “MGSDKIHHHHHHMIAKIIMGGGKMIKRVKTGIPGMDEILHGGIPERNIVLISGGPGTGKTIFSQQFIWNGLQMGEPGIYVALEEHPVQVKKNMEVFGWNVDPFEKEGKFAIVDAFTGGIGEYAEKEKYVVRDIDDVRELAEVLKRAVRETQAKRVVIDSVTTLYITKPAMARSIIFQLKRILSGLGCTSLFVSQVSVTEKGFGGPGVEHGVDGIIRLDLDEIDGELKRSLIVWKMRGTSHSMRRHPFEITDKGIVIYPSEGGEGR”, for which the “soluble on expression in E. coli” value is listed as “not soluble”.

For the sequence “MIGFAYLRLQKPSVYVIASQHFDGSIAAGLFESFGFKNIRGSSKKGGVKVLIEGLKRLKEGCDVAITPDGPKGPRHSIADGVIALAQKSGVGISACRVVCKNAWRLNTWDQFEIPKPFSEVYYYMLESVIIPKEWELSRAKEYLKTRMDSVGFEEPQRGLGALEHHHHHH”, the “soluble on expression in E. coli” value is given as “soluble”.

“MSLAIVAKRTIMSLFSDVDDVYSHQVRIVLAEKGVNVEILAVKQDEPGADLLSINPYGTVPTLIDRELVLYEARIIMEYLDERFPHPPLLPVYPVARAEARKMMHRIEQDWYYLMNAILREESVEQARANLLESLTSLDPVFADKPYFLSDEFSLLDCALAPLLWRLPKLGLEIAPNFKGIISYMQRVFKRDSFQTSLTDAERQIRAAEGHHHHHH”: the “soluble on expression in E. coli” value is listed as “soluble”.

For the sequence “MGSDKIHHHHHHMKKRFIYHDEKSNKFWWIDYEGDSLAVNYGKVGSIGKFQTKEFDNEEQCLKEASKLIAAKMKKGYQEDPKFNFMDRYYFDDEEIGLHVKTSHPNFQCHFTDPLYMCCWDEESPFGSDEGADALNVLENSLRKEPDLDCADFPQMLIETMWGMKYIAMDSILEEDVRAQLLVDEMSTIQSNMITYATAFGQIKVMGKISHKLKKMGLNALARHQLTAKILQWGDGQDSPILQKMIDDLTAFPHEN”, the “soluble on expression in E. coli” value is reported as “not soluble”.

In the case of “MLNNLLQQATSPNGRARQYAIEHTVELTNLIPPTVSYESGGHTLIIGPTMLIERITEPLSSMASITLLSVDGEPGTQSNLYYADTVEISGFLGAFSVNVENHGKRVNLAQAAIGGNSFDIVLDMSLNGLMSEEVPVPGYFPVGRGYPKLADALEEIPTLMGTFDKPKYFRLDPDLCAHSSRGVKGCERCVDACPAGALSSEGSEQTGHRIQINPYLCQGVGTCATACPTEAIHYALPNPTDTQKFIERLLANYHQAGGEKPIVLICSSRHESYNVMALKVLPDNVIPVVVEELPSVGIDSWFAALVNGATQVLFAASRHMPPTIQRILNQEMSMAQSLLTHLGLPKETIDILYLESLREGMPVLCEQPLGLKLGDLIGNKRERLFTALDALAETLNAQPSVQPLSISAPYGTIECQTSDCTLCMSCVAVCPTRALHLAGDSPALRFIEQDCVQCGLCVKACPEQVLSATPQLNWNKAARQGVVTLHQEEPAKCLRCHKPFAPQSMITMLQTKLRGHSHFATPEALNRIAMCEDCRVVDMFEAMAHDPEQQLKY”, the “soluble on expression in E. coli” value is reported as “not soluble”.

For “MYGYYSIGELTKEFSITARTLRYYEEEGLLVPCRHGSARFYTQTDRHKLKQILRAKRVKFSLSEISEMLSMVGKPPTDEKKLKELIAGVNKKRADLQQMQRDIDDFLHDLERIEETLFESLAELGVNR”, the “soluble on expression in E. coli” value is listed as “not soluble”.

“MEVEKYDLTLDFDIQKRTFNGTETITADAGDIVLDAVGLQINWMKVNGRDTAFTYDGQTVRAPGDSQPQKIEISFAGKVSDSLSGIYYAGRENGMITTHFEATDARRMFPCVDHPAYKAVFAITVVIDKDYDAISNMPPKRIEVSERKVVEFQDTPRMSTYLLYVGIGKFRYEYEKYRDIDLILASLKDIRSKYPLDMARKSVEFYENYFGIPYALPKMHLISVPEFGAGAMENWGAITFREIYMDIAENSAVTVKRNSANVIAHEIAHQWFGDLVTMKWWNDLWLNESFATFMSYKTMDTLFPEWSFWGDFFVSRTSGALRSDSLKNTHPIEVDVRDPDEISQIFDEISYGKGASILRMIEDYAGYEEFRKGISKYLNDHKFGNAEGSDLWTAIEDVSGKPVKRVMEYWIKNPGYPVIKLKRNGRKITMYQTRFLLNGEEEGRWPVPVNIKKKDGVERILLEDEASIEADGLIKINADSAGFYRVLYDDATFSDVMGHYRDLSPLDRIGLVDDLFAFLLSGHIDPETYRQRIRNFFDDEDHNVITAIVGQMEYLRMLTHAFDDDARAFCRSRMQFLTGKQDENLKIALGRVSRLYVMVDESYAEEMSKLFKDFDSAEPEMRSSIATAYALVTGDLKGLLEKFRSVDRDEDRVRIISAFGKLKSNTDLSTVYGMVEKTEIKKQDMISFFSSALETLPGREFIFANLDRIIRLVIRYFTGNRTASRTVEMMIPVIGLDHPDAEDIVRNIGSKNISMGLAKGIEMLAVNRKLVERIRQTAVK”: the “soluble on expression in E. coli” value is “soluble”.

Take “MTDANYPIYGDIDGPIIMIGFGSIGRGTLPLIERHFNFDRTRLVVIDPREDIAAFLAERNIRHVQTHLTKENYKDVLKPLLKGVQGKGFCVNLSVDAASVDLMRICRKHGMLYIDTVVEPWPGFYFDADADNRARTNYSLRETMLKERARKPGGTTAVSTCGANPGMVSWFVKQALVNLAKDTGLDIEEPQSHDREGWAKLMQQLGVKGVHVAERDTQRAKEPKPFGAFWNTWSVEGFIAEGFQPAELGWGTHENWMPKNAKKQKKGSKAAIYLDQPGANTRVRTWCPGLGAQYGFLVTHNEAISISDYFTVRNDDGDVTYRPTCHYAYHPCNDAILSLHELFGNGGNPQPIQHVLGEDELVDGADELGVLLYGHDRNAYWYGSRLSLEEARSLAPSQNATGLQVSSAVLAGMAWAIENPEAGIVEADEMDYRRCLEVQRPYLGPVEGHYTDWTPLDGRPGLFPDNIDMSDPWQFRNILVRAAALEHHHHHH”: the “soluble on expression in E. coli” value is reported as “soluble”.

In the case of “MGSDKIHHHHHHMTISRNYDQEIKDTAGHKYAYNFDFDVMHPFMVRAFTPFFRPGNLLELGSFKGDFTSRLQEHFNDITCVEASEEAISHAQGRLKDGITYIHSRFEDAQLPRRYDNIVLTHVLEHIDDPVALLKRINDDWLAEGGRLFLVCPNANAVSRQIAVKMGIISHNSAVTEAEFAHGHRCTYALDTLERDASRAGLQVTYRSGIFFKALANFQWDQILQTDILSKEYLDGCYQLGQQYPDLCASIFLLCEKGINQ”, the “soluble on expression in E. coli” value is “not soluble”.

Regarding “DGSCTNTNSQLSANSKCEKSTLTNCYVDKSEVYGTTCTGSRFDGVTITTSTSTGSRISGPGCKISTCIITGGVPAPSAACKISGCTFSAN”, the “soluble on expression in E. coli” value is “soluble”.

Take “MGKTSQRKQCDCENPSKPCLSTSIPLRMSSYTFKRPVTKITSHLGNEVRYYQWEETFKKPEQACWQKRLQGLQAYSSAGELLSTSDLAKTLKDLTSTDTVASASDTQATSIDITSVPTLESSSHLANMIPEAGPQILCKEFLVTEQDIINQERKVKIARERLAVALIAHKLASEMETVRGSRKANL”: the “soluble on expression in E. coli” value is “not soluble”.

For “HAIFEREGNNLYCEVPINFTMAALGGEIEVPTLDGRVNLKIPGETQTGKLFRMRGKGVKSVRGGAQGDLLCRVVVETPVGLNEKQKQLLKELQESFGGPTGENN”, the “soluble on expression in E. coli” value was “not soluble”.

As for “TGKVHWSDELFNIFGRDPQKSAANYEELLNYIHPDDRDFVDGIIRNSFTGKRYGIDYRIIRDNGEERTVHAEKELIFDRN”, the “soluble on expression in E. coli” value is recorded as “not soluble”.

With “MGSSHHHHHHSSGRENLYFQGEYDYTDFINYYDKFKVIVYNVLKKLPLNDEIRKPVIEYYLNCIDYNVKKGKHIRGKILVLISSLSSAYSNIKRDSIYLLGWVVEAIQALILIADDIMDSGKFRRGAPCWYIVHGQSNAINDIFFLKMLSLSLIFELSSVFGNDIVMKIQKIYNESIFFTVLGQHLDLSYFDLSKADKISERYFSMVEMKTSRYTFYMPVFFGLTLSEIQVSSAQLNLIEAILYKLGEFYQVHNDVSDYLFNDSNADDICRFKLTWPLQKSFEIADEEMKLKISENYGKNSSLVKDCYNLLKINEHYLEYQRNALDYLIKLVKDITDDSLQKVFIHLIHQISELITNSRSNADSNNSL”, the “soluble on expression in E. coli” value is recorded as “soluble”.

The values are drawn from the DeepSol protein solubility set.
